In US9957297B2, “Template-fixed peptidomimetics as inhibitors of FPR1” (POLYPHOR AG, priority 2011, dated 2018):
Bridges are numbered along the chain shown (N, C = ends). Primed or numbered codes have the meaning given here. [ ]: non-standard residue; d: D form. Phe(4-CF3) = N[C@@H](Cc1ccc(C(F)(F)F)cc1)C(=O)O; dPro(4S-NH2) = N[C@@H]1CN[C@@H](C(=O)O)C1; dTic = O=C(O)[C@H]1Cc2ccccc2CN1; dPip′ = not defined here; Dab = NCC[C@H](N)C(=O)O

T1: Formyl-Peptide Receptor 1 (UniProt P21462 1-350, limits assumed)
T1 sequence (looked up): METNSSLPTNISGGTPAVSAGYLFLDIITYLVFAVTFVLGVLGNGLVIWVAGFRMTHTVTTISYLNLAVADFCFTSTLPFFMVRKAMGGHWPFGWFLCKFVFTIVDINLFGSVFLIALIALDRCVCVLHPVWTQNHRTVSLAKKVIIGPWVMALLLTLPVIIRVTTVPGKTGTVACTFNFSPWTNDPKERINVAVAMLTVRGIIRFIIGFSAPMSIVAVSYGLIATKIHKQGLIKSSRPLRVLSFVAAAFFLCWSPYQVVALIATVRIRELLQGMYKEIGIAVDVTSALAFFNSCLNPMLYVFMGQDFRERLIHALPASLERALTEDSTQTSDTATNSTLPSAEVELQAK

B1: cyclo(-Tyr-His-Lys-Cys-His-Gly-^DPro-Trp-Thr-Ile-Cys-Tyr-Glu-Lys-^DPro((4S)OH)-Pro-) (peptide)
peptide: cyclo(YHKCHG[dP]WTICYEK[dPro((4S)OH)]P)
modifications: disulfide 4-11
B2: cyclo(-Tyr-His-Ala-Cys-Trp-Gly-^DPro-Trp-Thr-Ile-Cys-Tyr-Gln-Lys-^DAla-Pro-) (peptide)
peptide: cyclo(YHACWG[dP]WTICYQK[dA]P)
modifications: disulfide 4-11
SMILES: CC[C@H](C)[C@@H]1NC(=O)[C@H]([C@@H](C)O)NC(=O)[C@H](Cc2c[nH]c3ccccc23)NC(=O)[C@H]2CCCN2C(=O)CNC(=O)[C@H](Cc2c[nH]c3ccccc23)NC(=O)[C@@H]2CSSC[C@H](NC1=O)C(=O)N[C@@H](Cc1ccc(O)cc1)C(=O)N[C@@H](CCC(N)=O)C(=O)N[C@@H](CCCCN)C(=O)N[C@H](C)C(=O)N1CCC[C@H]1C(=O)N[C@@H](Cc1ccc(O)cc1)C(=O)N[C@@H](Cc1c[nH]cn1)C(=O)N[C@@H](C)C(=O)N2
B3: cyclo(-Tyr-His-Lys-Cys-Phe(4CF3)-Gly-^DPro-Trp-Thr-Ile-Cys-Tyr-Glu-Lys-^DPro-Pro-) (peptide)
peptide: cyclo(YHKC[Phe(4-CF3)]G[dP]WTICYEK[dP]P)
modifications: disulfide 4-11
SMILES: CC[C@H](C)[C@@H]1NC(=O)[C@H]([C@@H](C)O)NC(=O)[C@H](Cc2c[nH]c3ccccc23)NC(=O)[C@H]2CCCN2C(=O)CNC(=O)[C@H](Cc2ccc(C(F)(F)F)cc2)NC(=O)[C@@H]2CSSC[C@H](NC1=O)C(=O)N[C@@H](Cc1ccc(O)cc1)C(=O)N[C@@H](CCC(=O)O)C(=O)N[C@@H](CCCCN)C(=O)N1CCC[C@@H]1C(=O)N1CCC[C@H]1C(=O)N[C@@H](Cc1ccc(O)cc1)C(=O)N[C@@H](Cc1c[nH]cn1)C(=O)N[C@@H](CCCCN)C(=O)N2
B4: cyclo(-Tyr-His-Lys-Cys-Trp-Gly-^DPro-Trp-Thr-Ile-Cys-Tyr-Glu-Lys-^DLys-Pro-) (peptide)
peptide: cyclo(YHKCWG[dP]WTICYEK[dK]P)
modifications: disulfide 4-11
SMILES: CC[C@H](C)[C@@H]1NC(=O)[C@H]([C@@H](C)O)NC(=O)[C@H](Cc2c[nH]c3ccccc23)NC(=O)[C@H]2CCCN2C(=O)CNC(=O)[C@H](Cc2c[nH]c3ccccc23)NC(=O)[C@@H]2CSSC[C@H](NC1=O)C(=O)N[C@@H](Cc1ccc(O)cc1)C(=O)N[C@@H](CCC(=O)O)C(=O)N[C@@H](CCCCN)C(=O)N[C@H](CCCCN)C(=O)N1CCC[C@H]1C(=O)N[C@@H](Cc1ccc(O)cc1)C(=O)N[C@@H](Cc1c[nH]cn1)C(=O)N[C@@H](CCCCN)C(=O)N2
B5: cyclo(-Tyr-His-Lys-Cys-His-Gly-^DPro-Trp-Thr-Ile-Cys-Tyr-Glu-Lys-^DAla-Pro-) (peptide)
peptide: cyclo(YHKCHG[dP]WTICYEK[dA]P)
modifications: disulfide 4-11
SMILES: CC[C@H](C)[C@@H]1NC(=O)[C@H]([C@@H](C)O)NC(=O)[C@H](Cc2c[nH]c3ccccc23)NC(=O)[C@H]2CCCN2C(=O)CNC(=O)[C@H](Cc2c[nH]cn2)NC(=O)[C@@H]2CSSC[C@H](NC1=O)C(=O)N[C@@H](Cc1ccc(O)cc1)C(=O)N[C@@H](CCC(=O)O)C(=O)N[C@@H](CCCCN)C(=O)N[C@H](C)C(=O)N1CCC[C@H]1C(=O)N[C@@H](Cc1ccc(O)cc1)C(=O)N[C@@H](Cc1c[nH]cn1)C(=O)N[C@@H](CCCCN)C(=O)N2
B6: cyclo(-Tyr-His-Lys-Cys-His-Gly-^DPro-Trp-Thr-Ile-Cys-Tyr-Glu-Lys-^DLys-Glu-) (peptide)
peptide: cyclo(YHKCHG[dP]WTICYEK[dK]E)
modifications: disulfide 4-11
SMILES: CC[C@H](C)[C@@H]1NC(=O)[C@H]([C@@H](C)O)NC(=O)[C@H](Cc2c[nH]c3ccccc23)NC(=O)[C@H]2CCCN2C(=O)CNC(=O)[C@H](Cc2c[nH]cn2)NC(=O)[C@@H]2CSSC[C@H](NC1=O)C(=O)N[C@@H](Cc1ccc(O)cc1)C(=O)N[C@@H](CCC(=O)O)C(=O)N[C@@H](CCCCN)C(=O)N[C@H](CCCCN)C(=O)N[C@@H](CCC(=O)O)C(=O)N[C@@H](Cc1ccc(O)cc1)C(=O)N[C@@H](Cc1c[nH]cn1)C(=O)N[C@@H](CCCCN)C(=O)N2
B7: cyclo(-Tyr-His-Lys-Cys-His-Gly-^DPro-Trp-Thr-Ile-Cys-Tyr-Glu-Lys-^DTic-Pro-) (peptide)
peptide: cyclo(YHKCHG[dP]WTICYEK[dTic]P)
modifications: disulfide 4-11
SMILES: CC[C@H](C)[C@@H]1NC(=O)[C@H]([C@@H](C)O)NC(=O)[C@H](Cc2c[nH]c3ccccc23)NC(=O)[C@H]2CCCN2C(=O)CNC(=O)[C@H](Cc2c[nH]cn2)NC(=O)[C@@H]2CSSC[C@H](NC1=O)C(=O)N[C@@H](Cc1ccc(O)cc1)C(=O)N[C@@H](CCC(=O)O)C(=O)N[C@@H](CCCCN)C(=O)N1Cc3ccccc3C[C@@H]1C(=O)N1CCC[C@H]1C(=O)N[C@@H](Cc1ccc(O)cc1)C(=O)N[C@@H](Cc1c[nH]cn1)C(=O)N[C@@H](CCCCN)C(=O)N2
B8: cyclo(-Tyr-His-Lys-Cys-Trp-Gly-^DPro-Trp-Thr-Ile-Cys-Tyr-Glu-Dab-^DPro-Pro-) (peptide)
peptide: cyclo(YHKCWG[dP]WTICYE[Dab][dP]P)
modifications: disulfide 4-11
B9: cyclo(-Tyr-His-Lys-Cys-Tyr-Gly-^DPro-Trp-Thr-Ile-Cys-Tyr-Glu-Lys-^DPro-Pro-) (peptide)
peptide: cyclo(YHKCYG[dP]WTICYEK[dP]P)
modifications: disulfide 4-11
SMILES: CC[C@H](C)[C@@H]1NC(=O)[C@H]([C@@H](C)O)NC(=O)[C@H](Cc2c[nH]c3ccccc23)NC(=O)[C@H]2CCCN2C(=O)CNC(=O)[C@H](Cc2ccc(O)cc2)NC(=O)[C@@H]2CSSC[C@H](NC1=O)C(=O)N[C@@H](Cc1ccc(O)cc1)C(=O)N[C@@H](CCC(=O)O)C(=O)N[C@@H](CCCCN)C(=O)N1CCC[C@@H]1C(=O)N1CCC[C@H]1C(=O)N[C@@H](Cc1ccc(O)cc1)C(=O)N[C@@H](Cc1c[nH]cn1)C(=O)N[C@@H](CCCCN)C(=O)N2
B10: cyclo(-Tyr-His-Lys-Cys-His-Gly-^DPro-Trp-Thr-Ile-Cys-Tyr-Glu-Lys-^DLys-Pro-) (peptide)
peptide: cyclo(YHKCHG[dP]WTICYEK[dK]P)
modifications: disulfide 4-11
SMILES: CC[C@H](C)[C@@H]1NC(=O)[C@H]([C@@H](C)O)NC(=O)[C@H](Cc2c[nH]c3ccccc23)NC(=O)[C@H]2CCCN2C(=O)CNC(=O)[C@H](Cc2c[nH]cn2)NC(=O)[C@@H]2CSSC[C@H](NC1=O)C(=O)N[C@@H](Cc1ccc(O)cc1)C(=O)N[C@@H](CCC(=O)O)C(=O)N[C@@H](CCCCN)C(=O)N[C@H](CCCCN)C(=O)N1CCC[C@H]1C(=O)N[C@@H](Cc1ccc(O)cc1)C(=O)N[C@@H](Cc1c[nH]cn1)C(=O)N[C@@H](CCCCN)C(=O)N2
B11: cyclo(-Tyr-His-Lys-Cys-Trp-Gly-^DPro-Trp-Thr-Ile-Cys-Tyr-Glu-Lys-^DPro-Pro-) (peptide)
peptide: cyclo(YHKCWG[dP]WTICYEK[dP]P)
modifications: disulfide 4-11
SMILES: CC[C@H](C)[C@@H]1NC(=O)[C@H]([C@@H](C)O)NC(=O)[C@H](Cc2c[nH]c3ccccc23)NC(=O)[C@H]2CCCN2C(=O)CNC(=O)[C@H](Cc2c[nH]c3ccccc23)NC(=O)[C@@H]2CSSC[C@H](NC1=O)C(=O)N[C@@H](Cc1ccc(O)cc1)C(=O)N[C@@H](CCC(=O)O)C(=O)N[C@@H](CCCCN)C(=O)N1CCC[C@@H]1C(=O)N1CCC[C@H]1C(=O)N[C@@H](Cc1ccc(O)cc1)C(=O)N[C@@H](Cc1c[nH]cn1)C(=O)N[C@@H](CCCCN)C(=O)N2
B12: cyclo(-Tyr-His-Lys-Cys-Trp-Gly-^DPro-Trp-Thr-Ile-Cys-Tyr-Glu-Lys-^DAla-Pro-) (peptide)
peptide: cyclo(YHKCWG[dP]WTICYEK[dA]P)
modifications: disulfide 4-11
SMILES: CC[C@H](C)[C@@H]1NC(=O)[C@H]([C@@H](C)O)NC(=O)[C@H](Cc2c[nH]c3ccccc23)NC(=O)[C@H]2CCCN2C(=O)CNC(=O)[C@H](Cc2c[nH]c3ccccc23)NC(=O)[C@@H]2CSSC[C@H](NC1=O)C(=O)N[C@@H](Cc1ccc(O)cc1)C(=O)N[C@@H](CCC(=O)O)C(=O)N[C@@H](CCCCN)C(=O)N[C@H](C)C(=O)N1CCC[C@H]1C(=O)N[C@@H](Cc1ccc(O)cc1)C(=O)N[C@@H](Cc1c[nH]cn1)C(=O)N[C@@H](CCCCN)C(=O)N2
B13: cyclo(-Tyr-His-Lys-Cys-His-Gly-^DPro-Trp-Thr-Ile-Cys-Tyr-Glu-Lys-^DPro((4S)NH2)-Pro-) (peptide)
peptide: cyclo(YHKCHG[dP]WTICYEK[dPro(4S-NH2)]P)
modifications: disulfide 4-11
B14: cyclo(-Tyr-His-Ala-Cys-Trp-Gly-^DPro-Trp-Thr-Ile-Cys-Tyr-Gln-Lys-^DLys-Pro-) (peptide)
peptide: cyclo(YHACWG[dP]WTICYQK[dK]P)
modifications: disulfide 4-11
SMILES: CC[C@H](C)[C@@H]1NC(=O)[C@H]([C@@H](C)O)NC(=O)[C@H](Cc2c[nH]c3ccccc23)NC(=O)[C@H]2CCCN2C(=O)CNC(=O)[C@H](Cc2c[nH]c3ccccc23)NC(=O)[C@@H]2CSSC[C@H](NC1=O)C(=O)N[C@@H](Cc1ccc(O)cc1)C(=O)N[C@@H](CCC(N)=O)C(=O)N[C@@H](CCCCN)C(=O)N[C@H](CCCCN)C(=O)N1CCC[C@H]1C(=O)N[C@@H](Cc1ccc(O)cc1)C(=O)N[C@@H](Cc1c[nH]cn1)C(=O)N[C@@H](C)C(=O)N2
B15: cyclo(-Tyr-His-Lys-Cys-His-Gly-^DAla-Trp-Thr-Ile-Cys-Tyr-Glu-Lys-^DPro-Glu-) (peptide)
peptide: cyclo(YHKCHG[dA]WTICYEK[dP]E)
modifications: disulfide 4-11
SMILES: CC[C@H](C)[C@@H]1NC(=O)[C@H]([C@@H](C)O)NC(=O)[C@H](Cc2c[nH]c3ccccc23)NC(=O)[C@@H](C)NC(=O)CNC(=O)[C@H](Cc2c[nH]cn2)NC(=O)[C@@H]2CSSC[C@H](NC1=O)C(=O)N[C@@H](Cc1ccc(O)cc1)C(=O)N[C@@H](CCC(=O)O)C(=O)N[C@@H](CCCCN)C(=O)N1CCC[C@@H]1C(=O)N[C@@H](CCC(=O)O)C(=O)N[C@@H](Cc1ccc(O)cc1)C(=O)N[C@@H](Cc1c[nH]cn1)C(=O)N[C@@H](CCCCN)C(=O)N2
B16: cyclo(-Tyr-His-Lys-Cys-His-Gly-^DPro-Trp-Thr-Ile-Cys-Tyr-Glu-Lys-^DPip-Pro-) (peptide)
peptide: cyclo(YHKCHG[dP]WTICYEK[dPip′]P)
modifications: disulfide 4-11
B17: cyclo(-Tyr-His-Ala-Cys-His-Gly-^DPro-Trp-Thr-Ile-Cys-Tyr-Gln-Lys-^DThr-Pro-) (peptide)
peptide: cyclo(YHACHG[dP]WTICYQK[dT]P)
modifications: disulfide 4-11
SMILES: CC[C@H](C)[C@@H]1NC(=O)[C@H]([C@@H](C)O)NC(=O)[C@H](Cc2c[nH]c3ccccc23)NC(=O)[C@H]2CCCN2C(=O)CNC(=O)[C@H](Cc2c[nH]cn2)NC(=O)[C@@H]2CSSC[C@H](NC1=O)C(=O)N[C@@H](Cc1ccc(O)cc1)C(=O)N[C@@H](CCC(N)=O)C(=O)N[C@@H](CCCCN)C(=O)N[C@H]([C@H](C)O)C(=O)N1CCC[C@H]1C(=O)N[C@@H](Cc1ccc(O)cc1)C(=O)N[C@@H](Cc1c[nH]cn1)C(=O)N[C@@H](C)C(=O)N2

The binders below were run against T1, Formyl-Peptide Receptor 1 (assay: cell-based or functional assay).

Row | β-Arrestin IC50 | Binder
1 | 39 nM | B1
2 | 133 nM | B2
3 | 172 nM | B3
4 | 126 nM | B4
5 | 65 nM | B5
6 | 124 nM | B6
7 | 56 nM | B7
8 | 53 nM | B8
9 | 22 nM | B9
10 | 385 nM | B10
11 | 54 nM | B11
12 | 126 nM | B12
13 | 41 nM | B13
14 | 195 nM | B14
15 | 77 nM | B15
16 | 29 nM | B16
17 | 641 nM | B17
